Laboratory results as given in patent US20030069395A1 (DYAX, published 2003).
Bridges are numbered along the chain shown (N, C = ends). Where no end group is shown, it is not given here. [ ]: non-standard residue; d: D form. fluorescein = fluorescein label; Ahx = NCCCCCC(=O)O

Tests used:
[1] = molecular target: T1, human serum albumin (HSA) (human, UniProt P02768 25-609); experiment: fluorescence anisotropy; pH 6.2, 0.14 M NaCl, no caprylate
T1 construct: also called caprylate-biotinylated-HSA
Experimental: (§1) Affinity determinations were made by first labeling polypeptides on the C-terminal end with NHS-fluorescein. Fluorescence anisotropy measurements were performed in 384-well microplates in a volume of 10 μl in binding buffer using a Tecan Polarion fluorescence polarization plate reader. The concentration of fluorescein labeled peptide was held constant (20 nM), and the concentration of HSA was varied. For pH 6.2, 7.1, and 7.4 binding conditions, a 3 mM phosphate, 0.01% Tween-20 buffer was used. For pH 9.1 binding conditions, a 3 mM sodium bicarbonate buffer, 0.01% Tween-20 nonionic detergent buffer was used. Once NaCl was added to any of these buffers, their pH was adjusted again to achieve the original pH. The binding mixtures were equilibrated for 10 minutes in the microplate at 30° C. prior to performing the measurement. The observed change in anisotropy was fit to the equation below via nonlinear regression to obtain the apparent KD. This equation assumes that the peptide and HSA form a reversible complex with 1:1 stoichiometry.

[2] = molecular target: T1, human serum albumin (HSA); experiment: fluorescence anisotropy; pH 9.1, 0.14 M NaCl (as the head marks it), no caprylate
Experimental: as §1

[3] = molecular target: T1, human serum albumin (HSA); experiment: phage ELISA on caprylate-biotinylated HSA held on streptavidin wells; TN12/1 solution-capture selection
[4] = molecular target: T1, human serum albumin (HSA); experiment: fluorescence anisotropy; pH 7.4, 0.14 M NaCl, 0.1% caprylate
Experimental: as §1
Once all the positive phage isolates were sequenced, peptides corresponding to the display peptide were synthesized. A small amount of constant phage sequence surrounding each varied amino acid sequence region was retained and either a -GGGK-NH₂ (SEQ ID NO: 24) amino acid sequence or -X-K-NH₂ C-terminal tail was added to each peptide, where X is 6-aminohexanoic acid and K-NH₂ is an amidated terminal lysine residue. The constant phage sequence was retained because these residues can often play a role in target binding. To determine its affinity for HSA , each peptide was labeled with fluorescein on the C-terminal lysine side chain.

[5] = molecular target: T1, human serum albumin (HSA); experiment: fluorescence anisotropy, truncated peptides
Experimental: as §1

[6] = molecular target: T1, human serum albumin (HSA); experiment: fluorescence anisotropy; buffer not named in Table 2
pig serum albumin = pig serum albumin (Pig, UniProt P08835 25-607); experiment: fluorescence anisotropy; 3 mM phosphate, pH 6.2, 0 M NaCl
Sequence of pig serum albumin (P08835 25-607 limits assumed): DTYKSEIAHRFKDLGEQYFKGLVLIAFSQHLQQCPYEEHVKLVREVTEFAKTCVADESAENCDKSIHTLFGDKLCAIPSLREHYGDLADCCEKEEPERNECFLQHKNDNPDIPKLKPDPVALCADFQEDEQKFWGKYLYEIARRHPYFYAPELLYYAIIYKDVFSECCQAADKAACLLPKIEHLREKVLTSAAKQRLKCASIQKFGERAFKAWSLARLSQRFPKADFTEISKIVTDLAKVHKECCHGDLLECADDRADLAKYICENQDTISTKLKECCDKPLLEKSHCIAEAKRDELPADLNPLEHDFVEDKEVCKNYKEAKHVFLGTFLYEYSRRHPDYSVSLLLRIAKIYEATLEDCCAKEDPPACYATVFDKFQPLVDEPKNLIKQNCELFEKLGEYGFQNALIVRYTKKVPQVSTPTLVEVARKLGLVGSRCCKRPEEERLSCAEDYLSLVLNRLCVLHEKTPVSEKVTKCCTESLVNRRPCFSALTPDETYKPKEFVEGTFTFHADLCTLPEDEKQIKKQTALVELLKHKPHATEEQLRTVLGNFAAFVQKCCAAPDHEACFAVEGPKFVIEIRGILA

rabbit serum albumin = rabbit serum albumin (Rabbit, UniProt P49065 25-608); experiment: as above
Sequence of rabbit serum albumin (P49065 25-608 limits assumed): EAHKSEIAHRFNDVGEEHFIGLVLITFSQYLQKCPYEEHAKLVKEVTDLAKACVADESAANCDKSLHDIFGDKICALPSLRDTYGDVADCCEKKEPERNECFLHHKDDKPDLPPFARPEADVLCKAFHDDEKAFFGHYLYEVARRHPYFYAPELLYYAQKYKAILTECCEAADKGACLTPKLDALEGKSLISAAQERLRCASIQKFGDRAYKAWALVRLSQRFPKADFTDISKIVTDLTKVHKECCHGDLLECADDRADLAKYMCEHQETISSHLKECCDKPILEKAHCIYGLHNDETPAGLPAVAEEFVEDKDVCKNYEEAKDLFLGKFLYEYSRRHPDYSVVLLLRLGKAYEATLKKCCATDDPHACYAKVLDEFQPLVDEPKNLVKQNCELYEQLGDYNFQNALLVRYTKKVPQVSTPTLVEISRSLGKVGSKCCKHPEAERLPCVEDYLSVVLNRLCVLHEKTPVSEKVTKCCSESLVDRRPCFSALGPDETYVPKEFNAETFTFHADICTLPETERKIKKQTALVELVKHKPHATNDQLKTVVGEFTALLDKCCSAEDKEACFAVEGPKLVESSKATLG

chicken ovalbumin [7] = molecular target: T2, chicken ovalbumin (Chicken, UniProt P01012 2-386); experiment: fluorescence anisotropy; PBS, pH 7.4, 0.14 M NaCl; negative control
T2 construct: Negative control; also called Chicken (egg)
T2 sequence (looked up): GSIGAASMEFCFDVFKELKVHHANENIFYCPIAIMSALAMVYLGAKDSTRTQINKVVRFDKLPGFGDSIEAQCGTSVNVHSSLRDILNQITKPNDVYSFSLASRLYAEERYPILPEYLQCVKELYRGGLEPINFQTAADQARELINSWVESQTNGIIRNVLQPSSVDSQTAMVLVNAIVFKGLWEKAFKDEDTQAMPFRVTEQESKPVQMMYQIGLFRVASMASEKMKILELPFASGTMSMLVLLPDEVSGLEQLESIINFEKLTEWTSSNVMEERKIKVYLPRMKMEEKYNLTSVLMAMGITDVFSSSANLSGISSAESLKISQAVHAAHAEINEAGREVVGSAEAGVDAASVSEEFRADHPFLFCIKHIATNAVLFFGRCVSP

chicken ovalbumin [8] = molecular target: T2, chicken ovalbumin; experiment: fluorescence anisotropy; 3 mM phosphate, pH 6.2, 0 M NaCl; negative control
[9] = molecular target: T1, human serum albumin (HSA); experiment: fluoresceinated peptide; 3 mM phosphate buffer, pH 6.2, no salt
Experimental: as §1
(§2) Each of the polypeptides was fluoresceinated and tested for binding against an immobilized HSA target as described above.

[10] = molecular target: T1, human serum albumin (HSA); experiment: fluoresceinated peptide; PBS
Experimental: as §1, §2

[11] = molecular target: T1, human serum albumin (HSA); experiment: fluorescence anisotropy; pH 7.4, 0.14 M NaCl, no caprylate
Experimental: as §1

B1: DX-298, Ac-AEGTGSNHGCWHFSCIWDAPE-X-K-NH2 (peptide)
peptide: Ac-AEGTGSNHGCWHFSCIWDAPE[Ahx]K(fluorescein)-NH2
modifications: disulfide 10-15
[1]
  Kd: > 200 µM
[2]
  Kd: > 200 µM

B2: phage isolate displaying DWDCVTRWANRDQQCWGP (SEQ ID NO: 247) (peptide)
chain: DWDCVTRWANRDQQCWGP
modifications: not fully specified (bridges); cysteine pairing not given here
notes: Whole phage in the ELISA; not shown: protein III of M13 phage; the display peptide stands at its amino terminus
[3]
  binding result: binds

B3: DX-296, Ac-AEGTGSHVGCNNALCMQYAPE-X-K-NH2 (peptide)
peptide: Ac-AEGTGSHVGCNNALCMQYAPE[Ahx]K(fluorescein)-NH2
modifications: disulfide 10-15
[1]
  Kd: > 100 µM
[4]
  Kd: > 200 µM

B4: truncated peptide of DX-236, Ac-FWFCDRIAWYPQHLCEFLDPEGGGK-NH2 (peptide)
peptide: Ac-FWFCDRIAWYPQHLCEFLDPEGGGK(fluorescein)-NH2
modifications: not fully specified (bridges); printed as Ac-FWFCDRIAWYPQHLCEFLDPEGGGK-NH2; cysteine pairing not given here
[5]
  fold increase in KD against DX-236 (SEQ ID NO: 19): ~4 fold
[6]
  Kd: 8.9 µM

B5: truncated peptide of DX-236, Ac-AEGTGDFWFCDRIAWYPQHLCGGGK-NH2 (peptide)
peptide: Ac-AEGTGDFWFCDRIAWYPQHLCGGGK(fluorescein)-NH2
modifications: not fully specified (bridges); printed as Ac-AEGTGDFWFCDRIAWYPQHLCGGGK-NH2; cysteine pairing not given here
[5]
  fold increase in KD against DX-236 (SEQ ID NO: 19): ~4 fold
[6]
  Kd: 8.9 µM

B6: DX-236, Ac-AEGTGDFWFCDRIAWYPQHLCEFLDPEGGGK-NH2 (peptide)
peptide: Ac-AEGTGDFWFCDRIAWYPQHLCEFLDPEGGGK-NH2
modifications: not fully specified; cysteine pairing not given here
Pig serum albumin
  Kd: 0.5 µM
Rabbit serum albumin
  Kd: 0.5 µM
Chicken ovalbumin [7]
  Kd: > 200 µM
Chicken ovalbumin [8]
  Kd: > 200 µM

B7: alanine mutant of DX-236, Ac-AEGTGDAWFCDRIAWYPQHLCEFLDPEGGGK-NH2 (peptide)
peptide: Ac-AEGTGDAWFCDRIAWYPQHLCEFLDPEGGGK-NH2
modifications: cysteine pairing not given here; also: fluoresceinated, site not given here
[9]
  Kd: 5.1 µM

B8: alanine mutant of DX-236, Ac-AEGTGDFWFCARIAWYPQHLCEFLDPEGGGK-NH2 (peptide)
peptide: Ac-AEGTGDFWFCARIAWYPQHLCEFLDPEGGGK-NH2
modifications: cysteine pairing not given here; also: fluoresceinated, site not given here
[10]
  Kd: 5 µM

B9: alanine mutant of DX-236, Ac-AEGTGDFWFCDRIAWAPQHLCEFLDPEGGGK-NH2 (peptide)
peptide: Ac-AEGTGDFWFCDRIAWAPQHLCEFLDPEGGGK-NH2
modifications: cysteine pairing not given here; also: fluoresceinated, site not given here
[9]
  Kd: 1.4 µM

B10: alanine mutant of DX-236, Ac-AEGTGDFWFCDRIAWYPQHACEFLDPEGGGK-NH2 (peptide)
peptide: Ac-AEGTGDFWFCDRIAWYPQHACEFLDPEGGGK-NH2
modifications: cysteine pairing not given here; also: fluorescein label, position not given here
[9]
  Kd: 2 µM

B11: alanine mutant of DX-236, Ac-AEGTGDFWFCDAIAWYPQHLCEFLDPEGGGK-NH2 (peptide)
peptide: Ac-AEGTGDFWFCDAIAWYPQHLCEFLDPEGGGK-NH2
modifications: cysteine pairing not given here; also: fluoresceinated, site not given here
[9]
  Kd: 1.5 µM

B12: alanine mutant of DX-236, Ac-AEGTGDFWFCDRIAWYPAHLCEFLDPEGGGK-NH2 (peptide)
peptide: Ac-AEGTGDFWFCDRIAWYPAHLCEFLDPEGGGK-NH2
modifications: cysteine pairing not given here; also: fluoresceinated, site not given here
[9]
  Kd: 2.2 µM

B13: alanine mutant of DX-236, Ac-AEGTGDFWFCDRIAWYAQHLCEFLDPEGGGK-NH2 (peptide)
peptide: Ac-AEGTGDFWFCDRIAWYAQHLCEFLDPEGGGK-NH2
modifications: cysteine pairing not given here; also: fluoresceinated, site not given here
[9]
  Kd: 1.3 µM

B14: alanine mutant of DX-236, Ac-AEGTGAFWFCDRIAWYPQHLCEFLDPEGGGK-NH2 (peptide)
peptide: Ac-AEGTGAFWFCDRIAWYPQHLCEFLDPEGGGK-NH2
modifications: cysteine pairing not given here; also: fluoresceinated, site not given here
[9]
  Kd: 5.1 µM

B15: alanine mutant of DX-236, Ac-AEGTGDFAFCDRIAWYPQHLCEFLDPEGGGK-NH2 (peptide)
peptide: Ac-AEGTGDFAFCDRIAWYPQHLCEFLDPEGGGK-NH2
modifications: cysteine pairing not given here; also: fluoresceinated, site not given here
[9]
  Kd: 2.3 µM

B16: alanine mutant of DX-236, Ac-AEGTGDFWFCDRIAAYPQHLCEFLDPEGGGK-NH2 (peptide)
peptide: Ac-AEGTGDFWFCDRIAAYPQHLCEFLDPEGGGK-NH2
modifications: cysteine pairing not given here; also: fluoresceinated, site not given here
[9]
  Kd: 1.4 µM

B17: DX-313, Ac-AEGTGDDWDCVTRWANRDQQCWGPDPE-X-K-NH2 (peptide)
peptide: Ac-AEGTGDDWDCVTRWANRDQQCWGPDPE[Ahx]K(fluorescein)-NH2
modifications: disulfide 10-21
[1]
  Kd: 80 µM
[11]
  Kd: > 200 µM
[2]
  Kd: 90 µM

B18: DX-315, Ac-AEGTGDDWDCVTRWANRDQQCWALDPE-X-K-NH2 (peptide)
peptide: Ac-AEGTGDDWDCVTRWANRDQQCWALDPE[Ahx]K(fluorescein)-NH2
modifications: not fully specified (bridges); printed as Ac-AEGTGDDWDCVTRWANRDQQCWALDPE-X-K-NH2; cysteine pairing not given here
[1]
  Kd: > 200 µM
[4]
  Kd: > 100 µM

B19: DX-319, Ac-AEGTGDDWQCVKDWANRRRGCMADDPE-X-K-NH2 (peptide)
peptide: Ac-AEGTGDDWQCVKDWANRRRGCMADDPE[Ahx]K(fluorescein)-NH2
modifications: disulfide 10-21
[1]
  Kd: > 200 µM
[11]
  Kd: > 200 µM

B20: DX-297, Ac-AEGTGSWKVCDHFFCLSPAPE-X-K-NH2 (peptide)
peptide: Ac-AEGTGSWKVCDHFFCLSPAPE[Ahx]K(fluorescein)-NH2
modifications: disulfide 10-15
[1]
  Kd: > 200 µM
[11]
  Kd: > 200 µM
[4]
  Kd: > 200 µM
